Reference: patent publication US20100172907A1 (Hoffmann-La Roche, published 2010)
Groups on a side chain read outwards from the residue. No end group written: not given here. NSMP = not defined here

T1: BSA-conjugated Aβ heptapeptide AEFRHDC (C-terminal Cys coupled to NSMP-activated BSA)
T1 construct: also called Peptide 2-7
T1 peptide: AEFRHDC

T2: BSA-conjugated Aβ heptapeptide LVFFAEC (reading uncertain; also: BSA conjugate)
T2 construct: also called Peptide 17-22
T2 peptide: LVFFAEC([NSMP-BSA])

T3: BSA-conjugated Aβ heptapeptide VFFAEDC (C-terminal Cys coupled to NSMP-activated BSA)
T3 construct: also called Peptide 18-23
T3 peptide: VFFAEDC

T4: BSA-conjugated Aβ heptapeptide FFAEDVC (C-terminal Cys coupled to NSMP-activated BSA)
T4 construct: also called Peptide 19-24
T4 peptide: FFAEDVC


Assays:
[1] = molecular target: T1, BSA-conjugated Aβ heptapeptide AEFRHDC; assay: ELISA
Experimental: (§1) 50 μl of NSMP activated BSA (6.7 mg/ml) was diluted with 50 μl of PBS, 0.1% sodium azide and 10 μl of peptide solution (1 mM in DMSO) was added. As negative control activated BSA was mock-treated without peptide addition. After 4 hrs at room temperature the reaction was stopped by addition of 10 μl of 10 mM Cystein. An aliquot of the conjugate reaction mixture was diluted 1:100 with 0.1M sodium bicarbonate buffer and immediately filled into the wells (100 μl) of ELISA plates (Nunc Immuno-Plate). After standing 16 hrs at 4° C. 100 μl blocking buffer (as above) was added to each well and incubated for another 30 minutes. The plates were washed with 2×300 μl/well TBST (as above) and filled with 100 μl antibody at 10 μg/ml or 2 μg/ml in blocking buffer. The plates were kept 16 hours at 4° C. and washed with 2×300 μl TBST. 100 μl/well HRP-conjugated anti-human Ig H+L (Pierce, dilution 1:1000 with blocking buffer) was added and incubated for 1 hour at ambient temperature. The plates were washed with 3×300 μl/well TBST. Colour development was started by addition of 100 μl tetra-methyl benzidine/hydrogen peroxide reagent.

[2] = molecular target: T2, BSA-conjugated Aβ heptapeptide LVFFAEC; assay: ELISA
Experimental: as §1

[3] = molecular target: T3, BSA-conjugated Aβ heptapeptide VFFAEDC; assay: ELISA
Experimental: as §1

[4] = molecular target: T4, BSA-conjugated Aβ heptapeptide FFAEDVC; assay: ELISA
Experimental: as §1

human Aβ (1-40) peptide [5] = molecular target: T5, human Aβ (1-40) peptide (human); assay: SPR Scatchard, higher affinity (bivalent)
T5 construct: also called Aβ1-40 fibers
Experimental: (§2) Binders with fast kinetics were analyzed by fitting the concentration-dependent sensor responses at equilibrium (adsorption-isotherms). KD values were calculated from the Biacore sensograms based on the total Fab concentration as determined by a protein assay. […] Briefly, time-dependent protein binding to Aβ1-40 fibers immobilized on the Biacore chip was measured during the association phase under mass-limited conditions at different flow rates of the analyte solution.
(§3) KD values of IgG binding to Aβ1-40 and Aβ1-42 fibers were determined in the Biacore. Briefly, a kinetic model for the stepwise formation of a bivalent complex was used, and KD values were calculated by Scatchard type analysis of equilibrium binding. Due to the very slow association process at low antibody concentration (several hours to reach equilibrium) equilibrium binding data were obtained by extrapolation of the association curves to long time intervals. The on- and off rates for the formation of the monovalent and bivalent complex were determined via the curve fit procedure and used for the extrapolation. Based on these Req values a Scatchard analysis was performed and KD values for the formation of the monovalent and the bivalent complex were determined.

Aβ (1-42) peptide [6] = molecular target: T6, Aβ (1-42) peptide (human); assay: SPR Scatchard, higher affinity (bivalent)
T6 construct: also called Aβ1-42 fibers; Aβ4
Experimental: as §2, §3

human Aβ (1-40) peptide [7] = molecular target: T5, human Aβ (1-40) peptide; assay: SPR, immobilized fibers
Experimental: (§4) Biacore2000 and Biacore3000 instruments were used for these measurements. Aβ1-40 and Aβ1-42 fibers were generated in vitro by incubation of synthetic peptides at a concentration of 200 μg/ml in 10 mM Na-acetate buffer (pH 4.0) for three days at 37° C. […] For binders with slow kinetics KD values were calculated by curve fitting of the time-dependent sensor responses, i.e. from the ratio of koff/kₒₙ. Binders with fast kinetics were analyzed by fitting the concentration-dependent sensor responses at equilibrium (adsorption-isotherms). KD values were calculated from the Biacore sensograms based on the total Fab concentration as determined by a protein assay. […] Briefly, time-dependent protein binding to Aβ1-40 fibers immobilized on the Biacore chip was measured during the association phase under mass-limited conditions at different flow rates of the analyte solution.

Aβ (1-42) peptide [8] = molecular target: T6, Aβ (1-42) peptide; assay: SPR, immobilized fibers
Experimental: as §4

human Aβ (1-40) peptide [9] = molecular target: T5, human Aβ (1-40) peptide; assay: SPR, immobilized fibers; remark: listed apart in the source
Experimental: as §4

Aβ (1-42) peptide [10] = molecular target: T6, Aβ (1-42) peptide; assay: SPR, immobilized fibers; remark: listed apart in the source
Experimental: as §4
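For OD ratio 17-22/BSA in this document: ELISA binding of human antibody (10 or 2 µg/ml) to plate-coated BSA–peptide conjugates, detected with HRP anti-human Ig and TMB colour, mock-treated BSA as negative control.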
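For OD ratio 18-23/BSA in this document: ELISA binding of human antibody (10 or 2 µg/ml) to plate-coated BSA–peptide conjugates, detected with HRP anti-human Ig and TMB colour, mock-treated BSA as negative control.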
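For OD ratio 2-7/BSA in this document: ELISA binding of human antibody (10 or 2 µg/ml) to plate-coated BSA–peptide conjugates, detected with HRP anti-human Ig and TMB colour, mock-treated BSA as negative control.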
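For Peptide-ratio 17-22/2-7 in this document: ELISA binding of human antibody (10 or 2 µg/ml) to plate-coated BSA–peptide conjugates, detected with HRP anti-human Ig and TMB colour, mock-treated BSA as negative control.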

| Binder | OD ratio 2-7/BSA [1] | OD ratio 17-22/BSA [2] | Peptide-ratio 17-22/2-7 [2] | OD ratio 18-23/BSA [3] | Peptide-ratio 18-23/2-7 [3] | OD ratio 19-24/BSA [4] | Peptide-ratio 19-24/2-7 [4] | Kd (human Aβ (1-40) peptide [5]) [nM] | Kd (Aβ (1-42) peptide [6]) [nM] | Kd (human Aβ (1-40) peptide [7]) [nM] | Kd (Aβ (1-42) peptide [8]) [nM] | Kd (human Aβ (1-40) peptide [9]) [nM] | Kd (Aβ (1-42) peptide [10]) [nM] |
| --- | --- | --- | --- | --- | --- | --- | --- | --- | --- | --- | --- | --- | --- |
| MSR 3.4.H7 IgG1 (antibody, V domains shown, full-length human IgG1) VH: QVQLVESGGGLVQPGGSLRLSCAASGFTFSSYAMSWVRQAPGKGLEWVSVISETGKNIYYADSVKGRFTISRDNSKNTLYLQMNSLRAEDTAVYYCARLTHYARYYRYFDVWGQGTLVTVSS VL: not shown | 22 | 3 | 0.14 | 16 | 0.73 | 15 | 0.68 | 0.1 to 0.3 | 0.1 to 0.3 |  |  |  |  |
| MS-R #7.9.H7 IgG1 (antibody, V domains shown, full-length human IgG1; also called MAB 31; MS-Roche IgG #7.9.H7) VH: QVELVESGGGLVQPGGSLRLSCAASGFTFSSYAMSWVRQAPGKGLEWVSAINASGTRTYYADSVKGRFTISRDNSKNTLYLQMNSLRAEDTAVYYCARGKGNTHKPYGYVRYFDVWGQGTLVTVSS VL: DIVLTQSPATLSLSPGERATLSCRASQSVSSSYLAWYQQKPGQAPRLLIYGASSRATGVPARFSGSGSGTDFTLTISSLEPEDFATYYCLQIYNMPITFGQGTKVEIKR | 30 | 5 | 0.17 | 16 | 0.53 | 10 | 0.33 | 0.25 to 0.69 | 0.24 to 0.7 |  |  |  |  |
| MS-R IgG 7.11H2 (antibody, V domains shown, full-length human IgG; also called 7.11H2 IgG) VH: QVELVESGGGLVQPGGSLRLSCAASGFTFSSYAMSWVRQAPGKGLEWVSAINANGYKKYYADSVKGRFTISRDNSKNTLYLQMNSLRAEDTAVYYCARGKGNTHKPYGYVRYFDVWGQGTLVTVSS VL: DIVLTQSPATLSLSPGERATLSCRASQSVSSSYLAWYQQKPGQAPRLLIYGASSRATGVPARFSGSGSGTDFTLTISSLEPEDFATYYCQQVYSPPHTFGQGTKVEIKR | 10 | 6 | 0.6 | 7 | 0.7 | 6 | 0.6 |  |  |  |  |  |  |
| MS-R IgG1 7.9.H3 (antibody, V domains shown, full-length human IgG1; also called 7.9H3 IgG) VH: QVELVESGGGLVQPGGSLRLSCAASGFTFSSYAMSWVRQAPGKGLEWVSAINYQGNRKYYADSVKGRFTISRDNSKNTLYLQMNSLRAEDTAVYYCARGKGNTHKPYGYVRYFDVWGQGTLVTVSS VL: DIVLTQSPATLSLSPGERATLSCRASQSVSSSYLAWYQQKPGQAPRLLIYGASSRATGVPARFSGSGSGTDFTLTISSLEPEDFATYYCLQIYNMPITFGQGTKVEIK | 13 | 6 | 0.46 | 8 | 0.62 | 6 | 0.46 | 0.1 to 0.5 | 0.1 to 0.4 |  |  |  |  |
| MS-R #7.11 IgG1 (antibody, V domains shown, full-length human IgG1) VH: QVELVESGGGLVQPGGSLRLSCAASGFTFSSYAMSWVRQAPGKGLEWVSAISGSGGSTYYADSVKGRFTISRDNSKNTLYLQMNSLRAEDTAVYYCARGKGNTHKPYGYVRYFDVWGQGTLVTVSS VL: DIVLTQSPATLSLSPGERATLSCRASQSVSSSYLAWYQQKPGQAPRLLIYGASSRATGVPARFSGSGSGTDFTLTISSLEPEDFATYYCQQVYSPPHTFGQGTKVEIKR |  |  |  |  |  |  |  |  |  | 2.3 | 5.7 | 2.3 | 5.7 |
| MSR 7.9.H2 IgG1 (antibody, V domains shown, full-length human IgG1) VH: QVELVESGGGLVQPGGSLRLSCAASGFTFSSYAMSWVRQAPGKGLEWVSAINADGNRKYYADSVKGRFTISRDNSKNTLYLQMNSLRAEDTAVYYCARGKGNTHKPYGYVRYFDVWGQGTLVTVSS VL: DIVLTQSPATLSLSPGERATLSCRASQSVSSSYLAWYQQKPGQAPRLLIYGASSRATGVPARFSGSGSGTDFTLTISSLEPEDFATYYCLQIYNMPITFGQGTKVEIKR | 13 | 5 | 0.38 | 8 | 0.62 | 6 | 0.46 | 0.12 to 0.42 | 0.11 to 0.38 |  |  |  |  |
| MS-R IgG1 3.6.H5 × 3.6.L2 (antibody, V domains shown, full-length human IgG1; VH entry starts at QLVESGG) VH: ELVESGGGLVQPGGSLRLSCAASGFTFSSYAMSWVRQAPGKGLEWVSAISESGKTKYYADSVKGRFTISRDNSKNTLYLQMNSLRAEDTAVYYCARLTHYARYYRYFDVWGQGTLVTVSS VL: DIVLTQSPATLSLSPGERATLSCRASQFLSRYYLAWYQQKPGQAPRLLIYGASSRATGVPARFSGSGSGTDFTLTISSLEPEDFAVYYCQQTYNYPPTFGQGTKVEIKR | 11 | 7 | 0.64 | 9 | 0.82 | 8 | 0.73 | 0.2 to 1.03 | 0.2 to 0.95 |  |  |  |  |
| MS-R IgG1 8.2.H2 (antibody, V domains shown, full-length human IgG1) VH: QVELVESGGGLVQPGGSLRLSCAASGFTFSSYAMSWVRQAPGKGLEWVSAISRTGSKTYYADSVKGRFTISRDNSKNTLYLQMNSLRAEDTAVYYCARLLSRGYNGYYHKFDVWGQGTLVTVSS VL: not shown | 18 | 10 | 0.56 | 15 | 0.83 | 14 | 0.78 | 0.16 to 1 | 0.12 to 0.92 |  |  |  |  |
| MS-R IgG 8.2.H2 × 8.2.L1 (antibody, V domains shown, full-length human IgG) VH: QVELVESGGGLVQPGGSLRLSCAASGFTFSSYAMSWVRQAPGKGLEWVSAISRTGSKTYYADSVKGRFTISRDNSKNTLYLQMNSLRAEDTAVYYCARLLSRGYNGYYHKFDVWGQGTLVTVSS VL: DIVLTQSPATLSLSPGERATLSCRASQRVSGRYLAWYQQKPGQAPRLLIYGASSRATGVPARFSGSGSGTDFTLTISSLEPEDFATYYCQQLSSYPPTFGQGTKVEIKR | 13 | 20 | 1.54 | 25 | 1.92 | 25 | 1.92 |  |  |  |  |  |  |
